Data on 1 variant can be found in IntAct's records for PubMed 12361576.

B1: Cofilin-1-A (Xenopus laevis (African clawed frog)), P45695 (parent)
chain: MASGVMVSDDVIKVFNEMKVRHQLSPEDAKKRKKAVVFCLSDDKKTIILEPGKEILQGDIGCNVEDPYKTFVKMLPRNDCRYALYDALYETKETKKEDLVFVFWAPEEASLKSKMIYASSKDAIKKRLPGIKHEWQINTYEDVNDPCNLADKLGGNTVVSLEGKSVRS

The assay covers variants of B1. The following applies: with 1433z_bovin YWHAZ.
In the case of S3A, the “effect of a mutation on the interaction” value was “decreasing interaction”.
